Blank lines part the entries; values can stand above or below the molecule they belong to.
B4: BMP6, mammalian expressed (glycosylated), recombinant human (ligand)
chain: SASSRRRQQSRNRSTQSQDVARVSSASDYNSSELKTACRKHELYVSFQDLGWQDWIIAPKGYAANYCDGECSFPLNAHMNATNHAIVQTLVHLMNPEYVPKPCCAPTKLNAISVLYFDDNSNVILKKYRNMVVRACGCH
modifications: N-linked glycosylation at Asn454 (prehelix loop)

Legend:
[1] = target: ActRIIB1-Fc (trap with a single ActRIIB ECD) (human); experiment: SPR
[2] = target: B4; experiment: SPR
[3] = target: B4; experiment: cryo-EM structure
[4] = target: the molecule itself; experiment: cryo-EM structure
[5] = target: ALK2-ActRIIB-Fc heterodimeric trap (human, UniProt Q04771;Q13705); experiment: SPR
ALK2-ActRIIB-Fc heterodimeric trap, sequence (Q04771 21-123, one chain of several): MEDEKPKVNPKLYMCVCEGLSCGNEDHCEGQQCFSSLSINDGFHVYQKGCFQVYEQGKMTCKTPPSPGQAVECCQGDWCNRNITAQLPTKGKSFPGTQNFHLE

[6] = target: ALK3-ActRIIB-Fc heterodimeric trap (human, UniProt P36894;Q13705); experiment: SPR

Kd [1]: 282 pM
Molecule: BMP6, mammalian expressed (glycosylated), recombinant human (from UniProt P22004 375-513) (ligand)

Kd [2]: 124 pM
B1: ActRIIB2-Fc (trap containing two ActRIIB ECDs) (Fc fusion)
chain: SGRGEAETRECIYYNANWELERTNQSGLERCEGEQDKRLHCYASWRNSSGTIELVKKGCWLDDFNCYDRQECVATEENPQVYFCCCEGNFCNERFTHLPEAGGPEVTYEPPPTAP

binding result [3]: binds
B2: ALK3 extracellular domain (ALK3 arm of ALK3-ActRIIB in the cryoEM structure) (domain or fragment)
chain: QNLDSMLHGTGMKSDSDQKKSENGVTLAPEDTLPFLKCYCSGHCPDDAINNTCITNGHCFAIIEEDDQGETTLASGCMKYEGSDFQCKDSPKAQLRRTIECCRTNLCNQYLQPTLPPVVIGPFFDGSIR

binding result [2]: binds
B3: ALK3-Fc (homodimeric Fc-fusion of ALK3-ECD) (Fc fusion)
chain: QNLDSMLHGTGMKSDSDQKKSENGVTLAPEDTLPFLKCYCSGHCPDDAINNTCITNGHCFAIIEEDDQGETTLASGCMKYEGSDFQCKDSPKAQLRRTIECCRTNLCNQYLQPTLPPVVIGPFFDGSIR

Molecule: B4
binding result [4]: binds | Kd [5]: 36 pM | Kd [6]: 51.7 pM

Kd [5]: 164 pM | Kd [6]: 71.4 pM
B5: deglycosylated BMP6 (ligand)
chain: SASSRRRQQSRNRSTQSQDVARVSSASDYNSSELKTACRKHELYVSFQDLGWQDWIIAPKGYAANYCDGECSFPLNAHMNATNHAIVQTLVHLMNPEYVPKPCCAPTKLNAISVLYFDDNSNVILKKYRNMVVRACGCH
modifications: deglycosylated with PNGase F

Source: doi:10.1101/2025.02.07.637115 (bioRxiv, 2025)
